Assay results reported in US20240309087A1 (SHANGHAI JUNSHI BIOSCIENCES, published 2024).
One block for each binder: values may come before it.

Tests used:
[1] = molecular target: T1, human CD112R on Jurkat CD112R effector cells (human, UniProt Q6DKI7 1-326); test: cell-based or functional assay
T1 sequence (looked up): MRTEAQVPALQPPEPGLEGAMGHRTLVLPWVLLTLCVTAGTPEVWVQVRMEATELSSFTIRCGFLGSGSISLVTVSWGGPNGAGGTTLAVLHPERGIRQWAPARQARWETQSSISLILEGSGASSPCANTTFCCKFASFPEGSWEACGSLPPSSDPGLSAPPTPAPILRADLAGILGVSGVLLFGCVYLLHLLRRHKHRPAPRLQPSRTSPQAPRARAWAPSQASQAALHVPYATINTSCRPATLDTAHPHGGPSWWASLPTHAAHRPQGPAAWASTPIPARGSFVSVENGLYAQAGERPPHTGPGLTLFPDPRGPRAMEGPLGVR

[2] = molecular target: T2, hCD112R mFC recombinant protein (human; murine, UniProt Q6DKI7 41-160); test: ELISA, coated hCD112R-ECD-mFC; EC50 COM701/EC50 antibody
T2 construct: range 41-160; expressed in 293E cells; also called hCD112R ECD mFC; hCD112R-ECD-mFC; not shown: murine IgG2a Fc domain (MX2-mFc vector)
T2 sequence (looked up): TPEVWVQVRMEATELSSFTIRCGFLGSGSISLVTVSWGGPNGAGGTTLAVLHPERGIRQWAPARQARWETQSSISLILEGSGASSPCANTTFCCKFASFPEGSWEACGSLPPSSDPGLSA
Method in brief: (§1)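 Plates coated with hCD112R-ECD-mFC at 1.5 μg/mL; humanized antibodies titrated from 1 μg/mL, 2.5-fold, 12 points. Bound antibody detected with HRP anti-human IgG Fc and TMB, read at 420/620 nm; EC50 from 4PL fit, COM701 and anti-KLH hu-IgG4 as controls.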

[3] = molecular target: T2, hCD112R mFC recombinant protein; test: ELISA, coated hCD112R-ECD-mFC
Method in brief: as §1

[4] = molecular target: T2, hCD112R mFC recombinant protein; test: FACS competition, hCD112R mFc on CHO CD112 cells; IC50 COM701/IC50 antibody
Method in brief: (§2)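 CHO cells overexpressing human CD112 were co-incubated 30 min at 4 °C with hCD112R mFc (5 μg/mL) and humanized anti-CD112R antibodies (from 100 μg/mL, 3-fold, 10 points). Bound fusion protein detected with anti-mouse IgG Fc secondary by flow cytometry; IC50 from four-parameter fit of MFI. COM701 served as positive control, anti-KLH hu-IgG4 as negative.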

[5] = molecular target: T2, hCD112R mFC recombinant protein; test: FACS competition, hCD112R mFc on CHO CD112 cells
Method in brief: as §2

B1: Hu22 (antibody, IgG4, V domains shown)
VH: EVQLVESGGGLVKPGGSLRLSCAASGFTFSSYHMSWVRQAPGKGLELVSAISRDGDSTYYPDTVKGRFTISRDDAENSLYLQMNSLRAEDTAVYYCSRHEDYFGFAMDSWGQGTLVTVSS
VL: DIVMTQSPDSLAVSLGERATINCKASQSVSNDVAWYQQKPGQPPKLLIYYVSHRFTGVPDRFSGSGSGTDFTLTISSLQAEDVAVYFCHQAYRSPWTFGQGTKLEIK
notes: humanized IgG4
EC50, CD112R/CD112 reporter [1]: 0.0267 µg/mL
Relative activity (%), EC50 COM701/EC50 antibody [1]: 191%
Relative activity (%) [2]: 156%
EC50 [3]: 0.00425 µg/mL
Relative activity (%) [4]: 134%
IC50 [5]: 2.67 µg/mL

B2: Hu23 (antibody, IgG4, V domains shown)
VH: EVQLVESGGGLVKPGGSLRLSCAASGFTFSSYHMSWVRQAPGKGLELVSAISRDGDSTYYPDTVKGRFTISRDDAENSLYLQMNSLRAEDTAVYYCSRHEDYFGFAMDSWGQGTLVTVSS
VL: DIQMTQSPSSLSASVGDRVTITCKASQSVSNDVAWYQQKPGKAPKLLIYYVSNRFTGVPSRFSGSGSGTDFTLTISSLQPEDFATYFCQQAYRSPWTFGQGTKLEIK
notes: humanized IgG4
EC50, CD112R/CD112 reporter [1]: 0.0374 µg/mL
Relative activity (%), EC50 COM701/EC50 antibody [1]: 217%
Relative activity (%) [2]: 153%
EC50 [3]: 0.00436 µg/mL
Relative activity (%) [4]: 141%
IC50 [5]: 2.53 µg/mL

B3: Hu28 (antibody, IgG4, V domains shown)
VH: EVQLVESGGGLVQPGGSLRLSCAASGFTFSSYHMSWVRQAPGKGLELVAAISRDGDSTYYPDTVKGRFTISRDNAKNSLYLQMNSLRAEDTAVYYCSRHEDYFGFAMDSWGQGTLVTVSS
VL: DIVMTQSPDSLAVSLGERATINCKASQSVSNDVAWYQQKPGQPPKLLIYYVSHRFTGVPDRFSGSGSGTDFTLTISSLQAEDVAVYFCHQAYRSPWTFGQGTKLEIK
notes: humanized IgG4
EC50, CD112R/CD112 reporter [1]: 0.0306 µg/mL
Relative activity (%), EC50 COM701/EC50 antibody [1]: 232%
Relative activity (%) [2]: 127%
EC50 [3]: 0.00479 µg/mL
Relative activity (%) [4]: 157%
IC50 [5]: 2.27 µg/mL

B5: Hu29 (antibody, IgG4, V domains shown)
VH: EVQLVESGGGLVQPGGSLRLSCAASGFTFSSYHMSWVRQAPGKGLELVAAISRDGDSTYYPDTVKGRFTISRDNAKNSLYLQMNSLRAEDTAVYYCSRHEDYFGFAMDSWGQGTLVTVSS
VL: DIQMTQSPSSLSASVGDRVTITCKASQSVSNDVAWYQQKPGKAPKLLIYYVSNRFTGVPSRFSGSGSGTDFTLTISSLQPEDFATYFCQQAYRSPWTFGQGTKLEIK
notes: humanized IgG4
EC50, CD112R/CD112 reporter [1]: 0.0272 µg/mL
Relative activity (%), EC50 COM701/EC50 antibody [1]: 230%
Relative activity (%) [2]: 147%
EC50 [3]: 0.00413 µg/mL
Relative activity (%) [4]: 97%
IC50 [5]: 3.67 µg/mL

B9: Hu17 (antibody, IgG4, V domains shown)
VH: EVQLVESGGGLVKPGGSLRLSCAASGFTFSSYHMSWVRQAPGKGLELVSAISRDGDSTYYPDTVKGRFTISRDNAKNSLYLQMNSLRAEDTAVYYCSRHEDYFGFAMDSWGQGTLVTVSS
VL: DIQMTQSPSSLSASVGDRVTITCKASQSVSNDVAWYQQKPGKAPKLLIYYVSNRFTGVPSRFSGSGSGTDFTLTISSLQPEDFATYFCQQAYRSPWTFGQGTKLEIK
notes: humanized IgG4
EC50, CD112R/CD112 reporter [1]: 0.0228 µg/mL
Relative activity (%), EC50 COM701/EC50 antibody [1]: 241%
Relative activity (%) [2]: 136%
EC50 [3]: 0.00418 µg/mL
Relative activity (%) [4]: 169%
IC50 [5]: 2.12 µg/mL

B11: Hu24 (antibody, IgG4, V domains shown)
VH: EVQLVESGGGLVKPGGSLRLSCAASGFTFSSYHMSWVRQAPGKGLELVSAISRDGDSTYYPDTVKGRFTISRDDAENSLYLQMNSLRAEDTAVYYCSRHEDYFGFAMDSWGQGTLVTVSS
VL: EIVMTQSPPTLSLSPGERVTLSCKASQSVSNDVAWYQQKPGQAPRLLIYYVSNRFTGIPARFSGSGSGTDFTLTISSLQPEDFAVYFCQQAYRSPWTFGQGTKLEIK
notes: humanized IgG4
EC50, CD112R/CD112 reporter [1]: 0.0485 µg/mL
Relative activity (%), EC50 COM701/EC50 antibody [1]: 167%
Relative activity (%) [2]: 155%
EC50 [3]: 0.00429 µg/mL
Relative activity (%) [4]: 124%
IC50 [5]: 2.89 µg/mL

The remaining lines, values ahead:

EC50, CD112R/CD112 reporter [1]: 0.031 µg/mL
Relative activity (%), EC50 COM701/EC50 antibody [1]: 184%
Relative activity (%) [2]: 136%
EC50 [3]: 0.00439 µg/mL
Relative activity (%) [4]: 105%
IC50 [5]: 3.4 µg/mL
B4: Hu35 (antibody, IgG4, V domains shown)
VH: EVQLVESGGGLVQPGGSLRLSCAASGFTFSSYHMSWVRQAPGKGLELVAAISRDGDSTYYPDTVKGRFTISRDDAENSLYLQMNSLRAEDTAVYYCSRHEDYFGFAMDSWGQGTLVTVSS
VL: DIQMTQSPSSLSASVGDRVTITCKASQSVSNDVAWYQQKPGKAPKLLIYYVSNRFTGVPSRFSGSGSGTDFTLTISSLQPEDFATYFCQQAYRSPWTFGQGTKLEIK
notes: humanized IgG4

EC50, CD112R/CD112 reporter [1]: 0.0336 µg/mL
Relative activity (%), EC50 COM701/EC50 antibody [1]: 160%
Relative activity (%) [2]: 162%
EC50 [3]: 0.00368 µg/mL
Relative activity (%) [4]: 149%
IC50 [5]: 2.4 µg/mL
B6: Hu34 (antibody, IgG4, V domains shown)
VH: EVQLVESGGGLVQPGGSLRLSCAASGFTFSSYHMSWVRQAPGKGLELVAAISRDGDSTYYPDTVKGRFTISRDDAENSLYLQMNSLRAEDTAVYYCSRHEDYFGFAMDSWGQGTLVTVSS
VL: DIVMTQSPDSLAVSLGERATINCKASQSVSNDVAWYQQKPGQPPKLLIYYVSHRFTGVPDRFSGSGSGTDFTLTISSLQAEDVAVYFCHQAYRSPWTFGQGTKLEIK
notes: humanized IgG4

EC50, CD112R/CD112 reporter [1]: 0.0241 µg/mL
Relative activity (%), EC50 COM701/EC50 antibody [1]: 300%
Relative activity (%) [2]: 145%
EC50 [3]: 0.00631 µg/mL
Relative activity (%) [4]: 74.1%
IC50 [5]: 3.25 µg/mL
B7: Hu54 (antibody, IgG4, V domains shown)
VH: EVQLVESGGGLVKPGGSLRLSCAASGFTFSSYHMSWVRQAPGKGLELVSAINSNGINTYYLDTVKGRFTISRDNAKNSLYLQMNSLRAEDTAVYYCARHEDYYGFAMDYWGQGTLVTVSS
VL: EIVMTQSPPTLSLSPGERVTLSCKASQSVSNDVAWYQQKPGQAPRLLIYYVSNRFTGIPARFSGSGSGTDFTLTISSLQPEDFAVYFCQQAYRSPWTFGQGTKLEIK
notes: humanized IgG4

EC50, CD112R/CD112 reporter [1]: 0.0356 µg/mL
Relative activity (%), EC50 COM701/EC50 antibody [1]: 160%
Relative activity (%) [2]: 142%
EC50 [3]: 0.0042 µg/mL
Relative activity (%) [4]: 146%
IC50 [5]: 2.44 µg/mL
B8: Hu36 (antibody, IgG4, V domains shown)
VH: EVQLVESGGGLVQPGGSLRLSCAASGFTFSSYHMSWVRQAPGKGLELVAAISRDGDSTYYPDTVKGRFTISRDDAENSLYLQMNSLRAEDTAVYYCSRHEDYFGFAMDSWGQGTLVTVSS
VL: EIVMTQSPPTLSLSPGERVTLSCKASQSVSNDVAWYQQKPGQAPRLLIYYVSNRFTGIPARFSGSGSGTDFTLTISSLQPEDFAVYFCQQAYRSPWTFGQGTKLEIK
notes: humanized IgG4

EC50, CD112R/CD112 reporter [1]: 0.034 µg/mL
Relative activity (%), EC50 COM701/EC50 antibody [1]: 184%
Relative activity (%) [2]: 153%
EC50 [3]: 0.00396 µg/mL
Relative activity (%) [4]: 151%
IC50 [5]: 2.37 µg/mL
B10: Hu30 (antibody, IgG4, V domains shown)
VH: EVQLVESGGGLVQPGGSLRLSCAASGFTFSSYHMSWVRQAPGKGLELVAAISRDGDSTYYPDTVKGRFTISRDNAKNSLYLQMNSLRAEDTAVYYCSRHEDYFGFAMDSWGQGTLVTVSS
VL: EIVMTQSPPTLSLSPGERVTLSCKASQSVSNDVAWYQQKPGQAPRLLIYYVSNRFTGIPARFSGSGSGTDFTLTISSLQPEDFAVYFCQQAYRSPWTFGQGTKLEIK
notes: humanized IgG4

EC50, CD112R/CD112 reporter [1]: 1.33 µg/mL
Relative activity (%), EC50 COM701/EC50 antibody [1]: 4.5%
Relative activity (%) [2]: 171%
EC50 [3]: 0.00535 µg/mL
Relative activity (%) [4]: 66.2%
IC50 [5]: 3.64 µg/mL
B12: Hu57 (antibody, IgG4, V domains shown)
VH: EVQLVESGGGLVQPGGSLRLSCAASGFTFSSYHMSWIRQAPGKGLELVAAINSNGINTYYLDTVKGRFTISRDNAKNSLYLQMNSLRAEDTAVYYCARHEDYYGFAMDYWGQGTLVTVSS
VL: EIVMTQSPPTLSLSPGERVTLSCKASQSVSNDVAWYQEKPGQAPRLLIYYVSHRFTGIPARFSGSGSGTDFTLTISSLQPEDFAVYYCHQAYRSPWTFGQGTKLEIK
notes: humanized IgG4

EC50, CD112R/CD112 reporter [1]: 0.0225 µg/mL
Relative activity (%), EC50 COM701/EC50 antibody [1]: 261%
Relative activity (%) [2]: 139%
EC50 [3]: 0.00602 µg/mL
Relative activity (%) [4]: 69%
IC50 [5]: 3.49 µg/mL
B13: Hu60 (antibody, IgG4, V domains shown)
VH: EVQLVESGGGLVQPGGSLRLSCAASGFTFSSYHMSWIRQAPGKGLELVAAINSNGINTYYLDTVKGRFTISRDNAKNSLYLQMNSLRAEDTAVYYCARHEDYYGFAMDYWGQGTLVTVSS
VL: EIVMTQSPPTLSLSPGERVTLSCKASQSVSNDVAWYQQKPGQAPRLLIYYVSNRFTGIPARFSGSGSGTDFTLTISSLQPEDFAVYFCQQAYRSPWTFGQGTKLEIK
notes: humanized IgG4
